Results published in the Human Domainome abundance scans (Beltran et al. 2025).
± gives the uncertainty stated by the source.

B1: V(D)J recombination-activating protein 2, residues 415 to 491; numbered along this chain, P55895 (parent)
chain: YWITCCPTCDVDINTWVPFYSTELNKPAMIYCSHGDGHWVHAQCMDLAERTLIHLSAGSNKYYCNEHVEIARALHTP

Variants of: B1
Assay: abundance fitness (aPCA) (normalised: wild type 0, dead -1); higher = more abundant; growth selection in yeast, the domain comes from the species named
Conditions: Homo sapiens

Variant	abundance fitness
V11M	-0.264 ± 0.19
V11A	-0.741 ± 0.35
A57S	0.048 ± 0.055
A57H	0.091 ± 0.17
A57N	0.057 ± 0.11
A57G	-0.068 ± 0.076
A57P	-0.029 ± 0.095
A57K	-0.111 ± 0.12
A71G	-0.051 ± 0.05
A71I	-0.008 ± 0.1
A71K	-0.225 ± 0.1
A71R	0.026 ± 0.052
A71Y	0.124 ± 0.15
A71E	0.085 ± 0.072
A71Q	0.044 ± 0.069
A71P	-0.03 ± 0.079
K26N	-0.03 ± 0.17
K26F	-0.116 ± 0.22
K26A	-0.275 ± 0.3
K26E	-0.129 ± 0.44
K26G	-0.17 ± 0.15
K26Q	-0.179 ± 0.19
K26V	-0.084 ± 0.23
C44L	-0.806 ± 0.064

Variant	abundance fitness
C44Q	-0.969 ± 0.12
C44Y	-0.961 ± 0.22
C44I	-0.972 ± 0.18
C44D	-0.765 ± 0.17
C44M	-1.15 ± 0.45
A42D	-0.762 ± 0.17
A42M	-0.313 ± 0.14
A42Q	-0.605 ± 0.17
A42L	-0.684 ± 0.087
I13R	0.114 ± 0.14
I13W	-0.12 ± 0.23
I13C	-0.059 ± 0.23
I13V	-0.35 ± 0.14
I13M	-0.284 ± 0.34
I13S	-0.264 ± 0.3
E23K	-0.54 ± 0.28
E23H	-0.635 ± 0.31
E23F	-0.901 ± 0.34
C9R	-0.668 ± 0.18
Y31K	0.041 ± 0.065
Y31A	-0.193 ± 0.074
Y31D	-0.28 ± 0.15
Y31L	0.005 ± 0.056
Y31T	-0.197 ± 0.079

Variant	abundance fitness
Y31R	-0.04 ± 0.065
P18Q	-0.425 ± 0.14
P18A	-0.028 ± 0.25
P18R	-0.381 ± 0.081
P18E	-0.28 ± 0.34
P18M	-0.579 ± 0.24
Y20D	-0.525 ± 0.26
Y20S	-0.513 ± 0.14
Y20N	-0.09 ± 0.25
Y1T	-0.098 ± 0.25
Y1D	-0.108 ± 0.21
Y1L	-0.098 ± 0.087
Y1A	-0.188 ± 0.079
Y1R	-0.469 ± 0.24
Y1H	-0.399 ± 0.18
I3S	-0.118 ± 0.044
I3Q	-0.186 ± 0.075
I3F	0.044 ± 0.082
I3D	0.004 ± 0.071
I3G	-0.021 ± 0.033
I3C	-0.117 ± 0.057
H54G	0.035 ± 0.054
H54R	-0.056 ± 0.074
H54C	0.001 ± 0.15

Variant	abundance fitness
H54L	0.016 ± 0.06
H54D	0.042 ± 0.18
H54V	0.008 ± 0.073
H54P	-0.007 ± 0.04
N25S	-0.042 ± 0.12
N25Y	-0.344 ± 0.36
N25L	0.073 ± 0.14
N25V	0.065 ± 0.21
P77W	-0.237 ± 0.38
P77Q	-0.011 ± 0.26
P77R	0.152 ± 0.31
D46E	-0.05 ± 0.075
D46S	0.102 ± 0.055
D46H	-0.071 ± 0.11
G35L	-0.042 ± 0.15
G35Q	-0.17 ± 0.12
G35A	-0.164 ± 0.22
G35N	0.137 ± 0.36
N14V	-0.149 ± 0.23
N14S	-0.419 ± 0.33
N14R	-0.137 ± 0.2
N14M	-0.01 ± 0.32
T4M	-0.176 ± 0.08
T4Y	-0.141 ± 0.12

Variant	abundance fitness
T4V	-0.128 ± 0.045
T4F	-0.101 ± 0.1
T4D	-0.022 ± 0.12
M29G	-0.377 ± 0.23
M29A	-0.575 ± 0.33
M29S	0.208 ± 0.28
M29E	-0.421 ± 0.24
V17F	0.109 ± 0.23
V17E	0.046 ± 0.33
V17M	-0.105 ± 0.25
Y62D	-0.558 ± 0.11
Y62W	0.067 ± 0.087
Y62R	-0.561 ± 0.083
Y62P	-0.67 ± 0.084
Y62I	-0.281 ± 0.097
S21A	-0.187 ± 0.13
S21W	-0.443 ± 0.19
S21G	-0.108 ± 0.091
L74G	0.092 ± 0.16
D10T	0.019 ± 0.21
D10M	-0.325 ± 0.47
L55Q	0.027 ± 0.074
L55H	0.085 ± 0.18
L55N	-0.062 ± 0.15

Variant	abundance fitness
L55Y	-0.027 ± 0.083
L55S	-0.011 ± 0.049
L55C	0.04 ± 0.099
H41R	-0.755 ± 0.25
H41Y	-0.771 ± 0.34
H41D	-0.785 ± 0.48
R50V	0.069 ± 0.051
R50Y	-0.122 ± 0.099
R50P	0.1 ± 0.068
R50L	0.013 ± 0.051
R50A	0.094 ± 0.066
R50F	-0.04 ± 0.081
R50N	-0.215 ± 0.14
R50M	0.015 ± 0.089
P7V	-0.006 ± 0.34
T51W	-0.412 ± 0.11
T51V	-0.043 ± 0.055
T51F	-0.118 ± 0.12
T51N	-0.191 ± 0.19
T51C	-0.027 ± 0.11
T51H	0.003 ± 0.14
T51G	-0.048 ± 0.055
S56W	-0.07 ± 0.062
S56L	-0.046 ± 0.064

Variant	abundance fitness
S56Q	-0.031 ± 0.13
S56G	0.005 ± 0.037
S56E	0.058 ± 0.065
S56A	0.078 ± 0.063
S56D	-0.04 ± 0.092
S56V	0.005 ± 0.048
S33P	-0.126 ± 0.062
S33K	-0.132 ± 0.067
S33V	-0.157 ± 0.043
S33L	-0.095 ± 0.039
S33W	-0.072 ± 0.052
S33Q	-0.091 ± 0.063
I30G	-0.644 ± 0.18
I30L	0.122 ± 0.14
I30M	-0.219 ± 0.24
F19M	-0.029 ± 0.16
F19A	-0.305 ± 0.13
F19W	0.043 ± 0.19
N65S	0.079 ± 0.079
N65R	0.079 ± 0.045
N65F	-0.172 ± 0.12
P27S	-0.958 ± 0.34
P27V	-0.668 ± 0.21
